According to patent US20240376170A1 (BRIGHT PEAK THERAPEUTICS, published 2024):
Bridges are numbered along the chain shown (N, C = ends). Primed or numbered codes have the meaning given here. [ ]: non-standard residue; d: D form. 8x polyethylene glycol‑amino = O-(8x polyethylene glycol-amino)-tyrosine, SITE 45; 9x polyethylene glycol‑azido = O-(9x polyethylene glycol-azido)-tyrosine, SITE 42; Ygp(4) = Tyr with amino-capped PEG8 (O-(8x polyethylene glycol-amino)-tyrosine); Yn3(4) = Tyr with azide-capped PEG9 (O-(9x polyethylene glycol-azido)-tyrosine); Ygp = O-(8x polyethylene glycol-amino)-tyrosine (Tyr, amino-capped PEG8); Yn3 = O-(9x polyethylene glycol-azido)-tyrosine (Tyr, azide-capped PEG9); Ygp″ = O-(8x polyethylene glycol-amino)-tyrosine; Yn3″ = O-(9x polyethylene glycol-azido)-tyrosine; PEG4′ = 4x polyethylene glycol; hSer = N[C@@H](CCO)C(=O)O; Nle = CCCC[C@H](N)C(=O)O

T1: IL-2Rβγ on HEK-Blue IL-2Rβγ reporter cells (InvivoGen) (UniProt P14784 27-551; P31785 23-369, limits assumed)
T1 sequence (looked up) 1: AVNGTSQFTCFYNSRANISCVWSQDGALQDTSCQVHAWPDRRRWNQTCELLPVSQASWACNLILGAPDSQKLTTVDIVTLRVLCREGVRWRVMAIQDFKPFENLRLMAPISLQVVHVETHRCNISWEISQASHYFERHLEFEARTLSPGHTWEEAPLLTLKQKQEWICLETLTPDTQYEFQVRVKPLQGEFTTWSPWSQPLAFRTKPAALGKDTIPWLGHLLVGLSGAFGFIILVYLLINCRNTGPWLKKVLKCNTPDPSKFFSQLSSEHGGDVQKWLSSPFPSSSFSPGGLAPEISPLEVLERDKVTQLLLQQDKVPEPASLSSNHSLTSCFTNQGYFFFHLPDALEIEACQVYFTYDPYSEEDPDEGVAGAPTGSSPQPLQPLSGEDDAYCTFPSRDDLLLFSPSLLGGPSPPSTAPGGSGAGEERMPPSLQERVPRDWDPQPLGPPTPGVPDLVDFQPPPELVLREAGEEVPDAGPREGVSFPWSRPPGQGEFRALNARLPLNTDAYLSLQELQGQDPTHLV
T1 sequence (looked up) 2: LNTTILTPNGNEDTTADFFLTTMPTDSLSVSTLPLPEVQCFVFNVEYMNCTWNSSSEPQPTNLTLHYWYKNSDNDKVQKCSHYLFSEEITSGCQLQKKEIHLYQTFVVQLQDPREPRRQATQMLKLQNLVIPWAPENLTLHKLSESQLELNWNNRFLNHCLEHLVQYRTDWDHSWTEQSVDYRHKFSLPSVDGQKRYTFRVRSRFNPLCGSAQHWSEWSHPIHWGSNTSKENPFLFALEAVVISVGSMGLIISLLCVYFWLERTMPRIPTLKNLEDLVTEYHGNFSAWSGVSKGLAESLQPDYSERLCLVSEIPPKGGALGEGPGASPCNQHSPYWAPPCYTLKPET

B1: CMP-317 (ligand)
chain: GSGSGSG[PEG4′]APTSSSTKKTQLQLEHLLLDLQEILNGINNYKNPKLTR[Nle]L[hSer][Yn3]KF[Ygp][Nle]PKKATELKHLQCLEEELKPLEEVL[hSer]LAQSKNFHLRPRDLISNINVIVLELKGSETTF[hSer]CEYADETATIVEFLNRWITFSQSIISTLT
modifications: bridge N-31; not fully specified (bridges); ends not checked
B2: CMP-302, MMP2 cleaved (ligand)
chain: GPLGLAGAPTSSSTKKTQLQLEHLLLDLQEILNGINNYKNPKLTR[Nle]L[hSer][Yn3″]KF[Ygp″][Nle]PKKATELKHLQCLEEELKPLEEVL[hSer]LAQSKNFHLRPRDLISNINVIVLELKGSETTF[hSer]CEYADETATIVEFLNRWITFSQSIISTLT
modifications: ends and bridges not checked; also: MMP2 cleaved, ring opened, cut site and remnants not given here
B3: CMP-316 (ligand)
chain: APTSSSTKKTQLQLEHLLLDLQKILNGINNYKNPKLTR[Nle]L[hSer][Yn3]KF[Ygp][Nle]PKKATELKHLQCLEEELKPLEEVL[hSer]LAQSKNFHLRPRDLISNINVIVLELKGSETTF[hSer]CEYADETATIVEFLNRWITFSQSIISTLT
modifications: ends and bridges not checked; also: further groups not given here
B4: CMP-304, MMP2 cleaved (ligand)
chain: PLGLAGAPTSSSTKKTQLQLEHLLLDLQEILNGINNYKNPKLTR[Nle]L[hSer][Yn3(4)]KF[Ygp(4)][Nle]PKKATELKHLQCLEEELKPLEEVL[hSer]LAQSKNFHLRPRDLISNINVIVLELKGSETTF[hSer]CEYADETATIVEFLNRWITFSQSIISTLT
modifications: ends and bridges not checked; also: MMP2 cleaved, ring opened, cut site and remnants not given here
B5: CMP-329, MMP2 cleaved (ligand)
chain: APTSSSTKKTQLQLEHLLLDLQEILNGINNYKNPKLTR[Nle]L[hSer][Yn3″]KF[Ygp″][Nle]PKKATELKHLQCLEEELKPLEEVL[hSer]LAQSKNFHLRPRDLISNINVIVLELKGSETTF[hSer]CEYADETATIVEFLNRWITFSQSIISTLT
modifications: ends and bridges not checked; also: after MMP2 cleavage, remnants of the Lys9–Glu23 peptide linker not given here
B6: CMP-330 (ligand)
chain: APTSSSTKKTQLQLEHLLLDLQEILNGINNYKNPKLTR[Nle]L[hSer]Y(9x polyethylene glycol‑azido)KFY(8x polyethylene glycol‑amino)[Nle]PKKATELKHLQCLEEELKPLEEVL[hSer]LAQSKNFHLRPRDLISNINVIVLELKGSETTF[hSer]CEYADETATIVEFLNRWITFSQSIISTLT
modifications: bridge 9-23; not fully specified (bridges)
B7: CMP-316, MMP2 cleaved (ligand)
chain: APTSSSTKKTQLQLEHLLLDLQKILNGINNYKNPKLTR[Nle]L[hSer][Yn3]KF[Ygp][Nle]PKKATELKHLQCLEEELKPLEEVL[hSer]LAQSKNFHLRPRDLISNINVIVLELKGSETTF[hSer]CEYADETATIVEFLNRWITFSQSIISTLT
modifications: ends and bridges not checked; also: further groups not given here, tested after MMP2 cleavage, remaining product not given here
B8: CMP-303 (ligand)
chain: PLGLAGAPTSSSTKKTQLQLEHLLLDLQEILNGINNYKNPKLTR[Nle]L[hSer][Yn3″]KF[Ygp″][Nle]PKKATELKHLQCLEEELKPLEEVL[hSer]LAQSKNFHLRPRDLISNINVIVLELKGSETTF[hSer]CEYADETATIVEFLNRWITFSQSIISTLT
modifications: bridge N-29; not fully specified (N-terminus, bridges); ends not checked
B9: CMP-330, MMP2 cleaved (ligand)
chain: APTSSSTKKTQLQLEHLLLDLQEILNGINNYKNPKLTR[Nle]L[hSer]Y(9x polyethylene glycol‑azido)KFY(8x polyethylene glycol‑amino)[Nle]PKKATELKHLQCLEEELKPLEEVL[hSer]LAQSKNFHLRPRDLISNINVIVLELKGSETTF[hSer]CEYADETATIVEFLNRWITFSQSIISTLT
modifications: not fully specified; also: before the cut Lys9 and Glu23 side chains are bridged by a peptide linker, what remains after the cut not given here
B10: CMP-315, MMP2 cleaved (ligand)
chain: APTSSSTKKTQLQLEHLLLDLQKILNGINNYKNPKLTR[Nle]L[hSer][Yn3(4)]KF[Ygp(4)][Nle]PKKATELKHLQCLEEELKPLEEVL[hSer]LAQSKNFHLRPRDLISNINVIVLELKGSETTF[hSer]CEYADETATIVEFLNRWITFSQSIISTLT
modifications: ends and bridges not checked; also: MMP2-cleaved, product after cut not given here, further groups not given here
B11: CMP-305, MMP2 cleaved (ligand)
chain: APTSSSTKKTQLQLEHLLLDLQKILNGINNYKNPKLTR[Nle]L[hSer][Yn3(4)]KF[Ygp(4)][Nle]PKKATELKHLQCLEEELKPLEEVL[hSer]LAQSKNFHLRPRDLISNINVIVLELKGSETTF[hSer]CEYADETATIVEFLNRWITFSQSIISTLT
modifications: ends and bridges not checked; also: Glu15 and Lys23 side chains carried cleaved peptide linker, remnants after MMP2 cut not given here
B12: CMP-304 (ligand)
chain: PLGLAGAPTSSSTKKTQLQLEHLLLDLQEILNGINNYKNPKLTR[Nle]L[hSer][Yn3(4)]KF[Ygp(4)][Nle]PKKATELKHLQCLEEELKPLEEVL[hSer]LAQSKNFHLRPRDLISNINVIVLELKGSETTF[hSer]CEYADETATIVEFLNRWITFSQSIISTLT
modifications: bridge N-29; not fully specified (N-terminus, bridges); ends not checked
B13: CMP-305 (ligand)
chain: APTSSSTKKTQLQLEHLLLDLQKILNGINNYKNPKLTR[Nle]L[hSer][Yn3(4)]KF[Ygp(4)][Nle]PKKATELKHLQCLEEELKPLEEVL[hSer]LAQSKNFHLRPRDLISNINVIVLELKGSETTF[hSer]CEYADETATIVEFLNRWITFSQSIISTLT
modifications: bridge 15-23; not fully specified (bridges); ends not checked
B14: CMP-329 (ligand)
chain: APTSSSTKKTQLQLEHLLLDLQEILNGINNYKNPKLTR[Nle]L[hSer][Yn3″]KF[Ygp″][Nle]PKKATELKHLQCLEEELKPLEEVL[hSer]LAQSKNFHLRPRDLISNINVIVLELKGSETTF[hSer]CEYADETATIVEFLNRWITFSQSIISTLT
modifications: bridge 9-23; not fully specified (bridges); ends not checked
B15: CMP-303, MMP2 cleaved (ligand)
chain: PLGLAGAPTSSSTKKTQLQLEHLLLDLQEILNGINNYKNPKLTR[Nle]L[hSer][Yn3″]KF[Ygp″][Nle]PKKATELKHLQCLEEELKPLEEVL[hSer]LAQSKNFHLRPRDLISNINVIVLELKGSETTF[hSer]CEYADETATIVEFLNRWITFSQSIISTLT
modifications: ends and bridges not checked; also: MMP2 cleaved, ring opened, cut site and remnants not given here
B16: CMP-315 (ligand)
chain: APTSSSTKKTQLQLEHLLLDLQKILNGINNYKNPKLTR[Nle]L[hSer][Yn3(4)]KF[Ygp(4)][Nle]PKKATELKHLQCLEEELKPLEEVL[hSer]LAQSKNFHLRPRDLISNINVIVLELKGSETTF[hSer]CEYADETATIVEFLNRWITFSQSIISTLT
modifications: ends and bridges not checked; also: further groups not given here

Target: T1, IL-2Rβγ on HEK-Blue IL-2Rβγ reporter …
Assay: cell-based or functional assay

Binder	Average EC50, HEK-Blue IL-2R (CD122+, CD132+) Reporter Assay, intact molecule	Average EC50, HEK-Blue IL-2R (CD122+, CD132+) Reporter Assay, MMP2 cleaved molecule
B1	2240 pM	–
B2	–	6.46 pM
B3	96.8 pM	–
B4	–	21 pM
B5	–	70.2 pM
B6	1720 pM	–
B7	–	96.3 pM
B8	521 pM	–
B9	–	558 pM
B10	–	41.8 pM
B11	–	18.5 pM
B12	340 pM	–
B13	497 pM	–
B14	1700 pM	–
B15	–	21.8 pM
B16	55.4 pM	–
